Biological target: T1, His-vimentin (UniProt P08670 1-466)
T1 construct: vimentin; also called vimentin with His Tag; source: E. coli DH5α, purified by His-beads
Assay: pull-down; GST fusion bound to glutathione-Sepharose beads incubated with purified His-tagged protein at 4 °C; washed 3 times with binding buffer; western blot
Details: both partners purified

T1 sequence (P08670 whole entry): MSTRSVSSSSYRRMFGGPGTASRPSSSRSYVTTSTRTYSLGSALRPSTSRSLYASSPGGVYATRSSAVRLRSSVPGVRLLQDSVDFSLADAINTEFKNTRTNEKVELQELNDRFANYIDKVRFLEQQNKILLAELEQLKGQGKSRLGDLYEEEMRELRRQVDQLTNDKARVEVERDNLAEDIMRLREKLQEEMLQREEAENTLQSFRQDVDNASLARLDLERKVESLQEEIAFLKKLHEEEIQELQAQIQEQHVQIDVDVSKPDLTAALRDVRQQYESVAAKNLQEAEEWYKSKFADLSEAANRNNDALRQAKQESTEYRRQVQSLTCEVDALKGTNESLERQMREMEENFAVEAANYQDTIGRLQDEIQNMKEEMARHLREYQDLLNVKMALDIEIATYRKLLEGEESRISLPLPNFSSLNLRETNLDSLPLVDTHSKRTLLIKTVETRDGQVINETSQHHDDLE

B1: GST-LASP1 (natural protein, UniProt Q14847 1-261, looked up)
chain: MNPNCARCGKIVYPTEKVNCLDKFWHKACFHCETCKMTLNMKNYKGYEKKPYCNAHYPKQSFTMVADTPENLRLKQQSELQSQVRYKEEFEKNKGKGFSVVADTPELQRIKKTQDQISNIKYHEEFEKSRMGPSGGEGMEPERRDSQDGSSYRRPLEQQQPHHIPTSAPVYQQPQQQPVAQSYGGYKEPAAPVSIQRSAPGGGGKRYRAVYDYSAADEDEVSFQDGDTIVNVQQIDDGWMYGTVERTGDTGMLPANYVEAI
notes: LIM and SH3 domain protein 1 (LASP1); also called LASP1 with GST Tag
binding result: binds

From PMC7958410, “Hepatitis B virus X protein promotes vimentin expression via LIM and SH3 domain protein 1 to facilitate epithelial-mesenchymal transition and hepatocarcinogenesis” (Cell Communication and Signaling : CCS, 2021)
